Data: patent US20260125454A1 (SHANGHAI JUNSHI BIOSCIENCES, published 2026)

Tests used:
[1] = biological target: T1, Biotin-huCGRPaSA (human, not fully specified; biotin (position not given)); assay: ELISA, supernatant; relative to chimeric C245
T1 construct: exact construct ('aSA') not explained; also called Biotin CGRPaSA; full-length (1-37) CGRP
T1 peptide: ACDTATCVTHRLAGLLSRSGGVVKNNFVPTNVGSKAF
How it was run: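 Antibodies, including reference chimeric C245, titrated 2.5-fold from 1000 ng/mL and incubated 60 min at 37°C on wells coated with 1.0 μg/mL biotin-CGRPaSA and blocked with 2% BSA. Bound IgG detected with HRP anti-human Fc antibody and TMB, acid-stopped, absorbance 450/620 nm.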

[2] = biological target: CGRP antigen; assay: cell-based or functional assay

| Binder | Relative binding activity, % [1] [%] | IC50 [2] [µg/mL] | relative activity (%) vs Ref(TEVA) [2] [%] |
| --- | --- | --- | --- |
| hu90 (antibody, V domains shown, 1F5 HC-5/3H10 LC2-1) VH: QVQLVQSGAEVKKPGASVKVSCKASGYTFIDFNMHWVRQAPGQRLEWMGYIYPYNADVVYNQDFTNRVTLTVDTSSSTAYMELSSLRSEDTAVYYCAREGLGGYWGQGTLVTVSS VL: DIVLTQSPDSLAVSLGERATINCKASQNIDYGGYSYMNWYQQKPGQPPKVLIYSVFNLESGVPDRFSGSGSGTDFTLTISSLQAEDVAVYYCQQSNEAPYTFGQGTKLEIK | 102 | 0.058 | 53 |
| hu86 (antibody, V domains shown, 1F5 HC-5/1F5 LC1-4) VH: QVQLVQSGAEVKKPGASVKVSCKASGYTFIDFNMHWVRQAPGQRLEWMGYIYPYNADVVYNQDFTNRVTLTVDTSSSTAYMELSSLRSEDTAVYYCAREGLGGYWGQGTLVTVSS VL: DIVLTQSPDSLAVSLGERATINCKASQNIDFDGYAYMNWYQHKPGQPPKVLIYSVFNLESGVPDRFSGSGSGTDFTLTISSLQAEDVAVYYCQQSHEVPYTFGQGTKLEIK | 118 | 0.134 | 35 |
| hu151 (antibody, V domains shown, 3E5 HC-1/1F5 LC1-4) VH: QVQLVQSGAEVKKPGASVKVSCKTSGYTFTDYNMHWVRQAPGQRLEWMGYISPYNGGTAYNQKFKFRVTLTVDTSSSTAYMELSSLRSEDTAVYYCAREGLGGYWGQGTLVTVSS VL: DIVLTQSPDSLAVSLGERATINCKASQNIDFDGYAYMNWYQHKPGQPPKVLIYSVFNLESGVPDRFSGSGSGTDFTLTISSLQAEDVAVYYCQQSHEVPYTFGQGTKLEIK | 119 | 0.0677 | 48 |
| hu145 (antibody, V domains shown, 3E5 HC-1/1A2 LC2-2) VH: QVQLVQSGAEVKKPGASVKVSCKTSGYTFTDYNMHWVRQAPGQRLEWMGYISPYNGGTAYNQKFKFRVTLTVDTSSSTAYMELSSLRSEDTAVYYCAREGLGGYWGQGTLVTVSS VL: DIVLTQSPASLAVSPGQRATITCKASQNIDYDGYAYLNWYQQKPGQPPKVLIYSVFNLESGVPARFSGSGSGTDFTLTINPVEADDTANYYCQQSNEFPYTFGQGTKLEIK | 119 | 0.0978 | 35 |
| hu131 (antibody, V domains shown, 2B8 HC1-3/1A2 LC2-1) VH: QVQLVQSGAEVKKPGASVKVSCKASGYTFTDYNMHWVRQAPGQGLEWMGNIYPYNAGTVYNQKFNNRVTLTVDTSSSTAYMELSRLRSDDTAVYYCAREGLGGYWGQGTLVTVSS VL: DIVLTQSPASLAVSPGQRATITCKASQNIDYDGYAYLNWYQQKPGQPPKVLIYSVFNLESGVPARFSGSGSGTDFTLTINPVEANDTANYYCQQSNEFPYTFGQGTKLEIK | 107 | 0.0425 | 80 |
| hu100 (antibody, V domains shown, 2A2 HC-1/2B8 LC2-1) VH: QVQLVQSGAEVKKPGASVKVSCKASGYTFTDYNMHWVRQAPGQRLEWMGYVYPYNGGSAYNQKFKSRVTLTVDTSSSTAYMELSSLRSEDTAVYYCAREGLGGYWGQGTLVTVSS VL: DIVLTQSPDSLAVSLGERATINCQASQNIDGNTYMNWYQQKPGQPPKVLIYSIFNLESGVPDRFSGSGSGTDFTLTISSLQAEDVAVYYCQQSNDYPYTFGQGTKLEIK | 133 | 0.11 | 28 |
| hu87 (antibody, V domains shown, 1F5 HC-5/2B8 LC2-1) VH: QVQLVQSGAEVKKPGASVKVSCKASGYTFIDFNMHWVRQAPGQRLEWMGYIYPYNADVVYNQDFTNRVTLTVDTSSSTAYMELSSLRSEDTAVYYCAREGLGGYWGQGTLVTVSS VL: DIVLTQSPDSLAVSLGERATINCQASQNIDGNTYMNWYQQKPGQPPKVLIYSIFNLESGVPDRFSGSGSGTDFTLTISSLQAEDVAVYYCQQSNDYPYTFGQGTKLEIK | 138 | 0.124 | 38 |
| hu71 (antibody, V domains shown, 1F5 HC-4/1F5 LC1-2) VH: QVQLVQSGSELKKPGASVKVSCKASGYTFTDFNMHWVRQAPGQGLEWMGYIYPYNGDVVYNQNFTNRFVLSVDSSSSTAYLQISSLKAEDTAVYYCAREGLGGYWGQGTLVTVSS VL: EIVLTQSPATLSLSPGERATLSCKASQNIDFDGYAYMNWYQHKPGQAPRVLIYSVFNLESGIPARFSGSGSGTDFTLTISSLEPEDFAVYYCQQSHEVPYTFGQGTKLEIK | 120 | 0.0404 | 77 |
| hu66 (antibody, V domains shown, 1F5 HC-4/1A2 LC2-1) VH: QVQLVQSGSELKKPGASVKVSCKASGYTFTDFNMHWVRQAPGQGLEWMGYIYPYNGDVVYNQNFTNRFVLSVDSSSSTAYLQISSLKAEDTAVYYCAREGLGGYWGQGTLVTVSS VL: DIVLTQSPASLAVSPGQRATITCKASQNIDYDGYAYLNWYQQKPGQPPKVLIYSVFNLESGVPARFSGSGSGTDFTLTINPVEANDTANYYCQQSNEFPYTFGQGTKLEIK | 129 | 0.0566 | 89 |
| hu77 (antibody, V domains shown, 1F5 HC-4/3H10 LC2-1) VH: QVQLVQSGSELKKPGASVKVSCKASGYTFTDFNMHWVRQAPGQGLEWMGYIYPYNGDVVYNQNFTNRFVLSVDSSSSTAYLQISSLKAEDTAVYYCAREGLGGYWGQGTLVTVSS VL: DIVLTQSPDSLAVSLGERATINCKASQNIDYGGYSYMNWYQQKPGQPPKVLIYSVFNLESGVPDRFSGSGSGTDFTLTISSLQAEDVAVYYCQQSNEAPYTFGQGTKLEIK | 112 | 0.0778 | 55 |
| hu76 (antibody, V domains shown, 1F5 HC-4/3E5 LC-1) VH: QVQLVQSGSELKKPGASVKVSCKASGYTFTDFNMHWVRQAPGQGLEWMGYIYPYNGDVVYNQNFTNRFVLSVDSSSSTAYLQISSLKAEDTAVYYCAREGLGGYWGQGTLVTVSS VL: DIVLTQSPDSLAVSLGERATINCKASQNIDYDGYTYLNWYQQKPGQPPKVLIYSIFNLESGVPDRFSGSGSGTDFTLTISSLQAEDVAVYYCQQSNEVPYTFGQGTKLEIK | 112 | 0.0649 | 66 |
| hu74 (antibody, V domains shown, 1F5 HC-4/2B8 LC2-1) VH: QVQLVQSGSELKKPGASVKVSCKASGYTFTDFNMHWVRQAPGQGLEWMGYIYPYNGDVVYNQNFTNRFVLSVDSSSSTAYLQISSLKAEDTAVYYCAREGLGGYWGQGTLVTVSS VL: DIVLTQSPDSLAVSLGERATINCQASQNIDGNTYMNWYQQKPGQPPKVLIYSIFNLESGVPDRFSGSGSGTDFTLTISSLQAEDVAVYYCQQSNDYPYTFGQGTKLEIK | 112 | 0.0739 | 58 |
| hu45 (antibody, V domains shown, 1F5 HC-2/1F5 LC1-2) VH: QVQLVQSGAEVKKPGASVKVSCKASGYTFTDFNMHWVRQAPGQRLEWMGYIYPYNGDVVYNQNFTNRVTLTVDTSSSTAYMELSSLRSEDTAVYYCAREGLGGYWGQGTLVTVSS VL: EIVLTQSPATLSLSPGERATLSCKASQNIDFDGYAYMNWYQHKPGQAPRVLIYSVFNLESGIPARFSGSGSGTDFTLTISSLEPEDFAVYYCQQSHEVPYTFGQGTKLEIK | 119 | 0.108 | 33 |
| hu58 (antibody, V domains shown, 1F5 HC-3/1F5 LC1-2) VH: QVQLVQSGAEVKKPGASVKVSCKASGYTFTDFNMHWVRQAPGQGLEWMGYIYPYNGDVVYNQNFTNRVTLTVDTSSSTAYMELRSLRSDDTAVYYCAREGLGGYWGQGTLVTVSS VL: EIVLTQSPATLSLSPGERATLSCKASQNIDFDGYAYMNWYQHKPGQAPRVLIYSVFNLESGIPARFSGSGSGTDFTLTISSLEPEDFAVYYCQQSHEVPYTFGQGTKLEIK | 113 | 0.0619 | 50 |
| hu84 (antibody, V domains shown, 1F5 HC-5/1F5 LC1-2) VH: QVQLVQSGAEVKKPGASVKVSCKASGYTFIDFNMHWVRQAPGQRLEWMGYIYPYNADVVYNQDFTNRVTLTVDTSSSTAYMELSSLRSEDTAVYYCAREGLGGYWGQGTLVTVSS VL: EIVLTQSPATLSLSPGERATLSCKASQNIDFDGYAYMNWYQHKPGQAPRVLIYSVFNLESGIPARFSGSGSGTDFTLTISSLEPEDFAVYYCQQSHEVPYTFGQGTKLEIK | 111 | 0.256 | 19 |
| hu136 (antibody, V domains shown, 2B8 HC1-3/1F5 LC1-2) VH: QVQLVQSGAEVKKPGASVKVSCKASGYTFTDYNMHWVRQAPGQGLEWMGNIYPYNAGTVYNQKFNNRVTLTVDTSSSTAYMELSRLRSDDTAVYYCAREGLGGYWGQGTLVTVSS VL: EIVLTQSPATLSLSPGERATLSCKASQNIDFDGYAYMNWYQHKPGQAPRVLIYSVFNLESGIPARFSGSGSGTDFTLTISSLEPEDFAVYYCQQSHEVPYTFGQGTKLEIK | 101 | 0.124 | 28 |
| hu32 (antibody, V domains shown, 1F5 HC-1/1F5 LC1-2) VH: QVQLVQSGAEVKKPGASVKVSCKASGYTFIDFNMHWVRQAPGQRLEWMGYIYPYNGDVVYNQNFTNRVTLTVDTSSSTAYMELSSLRSEDTAVYYCAREGLGGYWGQGTLVTVSS VL: EIVLTQSPATLSLSPGERATLSCKASQNIDFDGYAYMNWYQHKPGQAPRVLIYSVFNLESGIPARFSGSGSGTDFTLTISSLEPEDFAVYYCQQSHEVPYTFGQGTKLEIK | 116 | 0.137 | 26 |
